Test results taken from the supplement of paper PMC6757056.
± gives the standard deviation of the averaged measurements.

B1: library; a variant is named by its letters at N, in order (parent)
chain: GCUGUCACCGAGAAACUGUGAAGUAUAUCUUAAACCUGGGCACUUAAAAGAUAUAUGGAGUUAGUAGUGCAACCUGCUCGGUCUGAUGAGUCCNNNNNNGGACGAAACAGC

Legend:
cyclic di-GMP [1] = variants of: B1; assay: normalized RNA/DNA level without ligand (relative to sTRSVctl = 100) (log10 (% of sTRSVctl)); HEK293T; ligand: cyclic di-GMP (c-di-GMP-II aptamer); higher = less ribozyme self-cleavage, higher mRNA level; details: reporter: mCherry (pCS4076), ligand present: no
Procedure, shortened: (§1)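 Total RNA, extracted with EDTA 72 h after HEK293T cells were transfected with 4 µg per 6-well well of reporter-linked ribozyme switch library plasmids, was reverse-transcribed, amplified, barcoded and sequenced. Ligand, if used, was added 1 h before transfection. RNA level was derived from RNA reads divided by DNA reads and normalized to a spiked-in non-cleaving sequence or to the top sequences. This was multiplied by 100 and log10-transformed, with the top set of 25 sequences and a ≥100 DNA read minimum.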

cyclic di-GMP [2] = variants of: B1; assay: normalized RNA/DNA level with ligand (relative to sTRSVctl = 100) (log10 (% of sTRSVctl)); HEK293T; ligand: cyclic di-GMP (c-di-GMP-II aptamer); ligand concentration (+) RNA-Seq: 1 mM; higher = less ribozyme self-cleavage, higher mRNA level; details: reporter: mCherry (pCS4076), ligand present: yes
Procedure, shortened: as §1

Variant	normalized RNA/DNA level without ligand (log10) (cyclic di-GMP [1])	normalized RNA/DNA level with ligand (log10) (cyclic di-GMP [2])
CCACAA	1.51 ± 0.032	1.7 ± 0.11
ACUUCU	1.707 ± 0.0019	1.84 ± 0.057
GGCUAG	1.5161 ± 0.00019	1.683 ± 0.0052
CCAAGG	1.688 ± 0.013	1.8 ± 0.1
CGUAGA	1.44 ± 0.016	1.64 ± 0.14
CUGCAC	1.742 ± 0.0034	1.88 ± 0.1
UUCAUU	1.77 ± 0.074	1.89 ± 0.094
ACGCGA	1.4 ± 0.11	1.62 ± 0.11
UACUAG	1.697 ± 0.012	1.84 ± 0.09
GGUAAU	1.61 ± 0.039	1.72 ± 0.037
UCCGUU	1.6717 ± 0.00065	1.85 ± 0.12
UUGGGC	1.72 ± 0.023	1.84 ± 0.091
UGGUUA	1.67 ± 0.019	1.85 ± 0.042
GUUCCU	1.76 ± 0.079	1.89 ± 0.13
CUAGUU	1.739 ± 0.0023	1.89 ± 0.06
UGAAGG	1.661 ± 0.00062	1.84 ± 0.08
AUGCGU	1.679 ± 0.011	1.79 ± 0.099
ACAGCU	1.55 ± 0.062	1.73 ± 0.12
GAUAGU	1.62 ± 0.045	1.78 ± 0.1
CGUAGU	1.69 ± 0.041	1.82 ± 0.13
UAUGUU	1.65 ± 0.008	1.79 ± 0.15
GUCUCU	1.714 ± 0.011	1.86 ± 0.095
AGUCAG	1.571 ± 0.011	1.73 ± 0.16

Variant	normalized RNA/DNA level without ligand (log10) (cyclic di-GMP [1])	normalized RNA/DNA level with ligand (log10) (cyclic di-GMP [2])
UAUACG	1.75 ± 0.029	1.85 ± 0.11
UAUGGC	1.708 ± 0.015	1.82 ± 0.12
ACGUUA	1.49 ± 0.045	1.65 ± 0.13
GGGUAU	1.75 ± 0.041	1.9 ± 0.23
CCGGAG	1.31 ± 0.13	1.52 ± 0.14
GACAUC	1.67 ± 0.037	1.84 ± 0.059
GUUUUA	1.63 ± 0.032	1.82 ± 0.098
UCAACG	1.77 ± 0.024	1.89 ± 0.096
UCAAAU	1.5 ± 0.063	1.71 ± 0.092
UGGCGA	1.597 ± 0.0046	1.74 ± 0.11
UGGAGG	1.699 ± 0.0024	1.84 ± 0.14
AGCCUC	1.77 ± 0.073	1.87 ± 0.13
AGCGCU	1.7 ± 0.044	1.82 ± 0.17
AAGUUC	1.6603 ± 0.0013	1.84 ± 0.11
GGUGCC	1.82 ± 0.077	1.95 ± 0.15
CCCCCC	1.82 ± 0.043	1.93 ± 0.12
UGGUUC	1.7 ± 0.033	1.83 ± 0.12
CUCAAU	1.55 ± 0.057	1.71 ± 0.082
AGGUUA	1.54 ± 0.037	1.64 ± 0.18
GAGCUU	1.8 ± 0.045	1.9 ± 0.14
UUAAGG	1.77 ± 0.047	1.9 ± 0.13
UGGGCC	1.94 ± 0.036	1.97 ± 0.081
GGGUAA	1.61 ± 0.091	1.7 ± 0.12

Variant	normalized RNA/DNA level without ligand (log10) (cyclic di-GMP [1])	normalized RNA/DNA level with ligand (log10) (cyclic di-GMP [2])
GGCCUA	1.61 ± 0.12	1.83 ± 0.13
GCAGGG	1.6 ± 0.05	1.74 ± 0.082
CACUAC	1.64 ± 0.037	1.77 ± 0.11
GCGUCU	1.67 ± 0.03	1.83 ± 0.1
GUGAGG	1.61 ± 0.06	1.8 ± 0.093
GGAGUC	1.55 ± 0.046	1.79 ± 0.051
UUUUAG	1.74 ± 0.022	1.89 ± 0.065
CGUUGG	1.737 ± 0.0074	1.85 ± 0.072
UGGUGC	1.72 ± 0.053	1.86 ± 0.099
AGCGAG	1.57 ± 0.13	1.74 ± 0.042
ACUAGC	1.6 ± 0.048	1.77 ± 0.12
CACGAU	1.68 ± 0.032	1.83 ± 0.089
GCCGGA	1.55 ± 0.041	1.7 ± 0.11
AGAGUU	1.6 ± 0.016	1.8 ± 0.14
GAGUGA	1.71 ± 0.033	1.79 ± 0.14
GAUCUA	1.67 ± 0.032	1.81 ± 0.097
GAACAU	1.64 ± 0.033	1.78 ± 0.097
CCAGCG	1.76 ± 0.036	1.91 ± 0.097
AGAAUA	1.43 ± 0.091	1.63 ± 0.098
AUAGGA	1.35 ± 0.13	1.55 ± 0.15
ACGAGG	1.5 ± 0.06	1.69 ± 0.1
CAACUA	1.39 ± 0.069	1.6 ± 0.15
UGCAUU	1.713 ± 0.0057	1.84 ± 0.056

Variant	normalized RNA/DNA level without ligand (log10) (cyclic di-GMP [1])	normalized RNA/DNA level with ligand (log10) (cyclic di-GMP [2])
GGCAGA	1.637 ± 0.013	1.76 ± 0.1
AUAACU	1.67 ± 0.025	1.82 ± 0.068
AGUGAU	1.671 ± 0.003	1.81 ± 0.12
AGAUAU	1.61 ± 0.046	1.78 ± 0.14
GUGACC	1.67 ± 0.065	1.824 ± 0.015
UCAAAC	1.63 ± 0.026	1.8 ± 0.079
AGCCGG	1.765 ± 0.013	1.865 ± 0.018
CUUCUU	1.5858 ± 0.00043	1.75 ± 0.2
AUGCUG	1.68 ± 0.028	1.83 ± 0.074
CGUAGC	1.73 ± 0.062	1.83 ± 0.055
UCUCUC	1.81 ± 0.069	1.9 ± 0.12
UCCACA	1.74 ± 0.035	1.87 ± 0.12
CUUUGA	1.66 ± 0.019	1.79 ± 0.11
CGCCCC	1.818 ± 0.0078	1.9 ± 0.1
GUCCUU	1.7 ± 0.019	1.87 ± 0.1
AGUACG	1.58 ± 0.046	1.74 ± 0.065
ACAGCA	1.66 ± 0.046	1.75 ± 0.095
AAACCA	1.57 ± 0.054	1.76 ± 0.094
GGUCUU	1.64 ± 0.039	1.79 ± 0.13
CUCCGA	1.69 ± 0.016	1.82 ± 0.15
CCACGG	1.79 ± 0.058	1.89 ± 0.037
UCCGAC	1.65 ± 0.062	1.79 ± 0.1
GUCGUA	1.63 ± 0.073	1.78 ± 0.095

Variant	normalized RNA/DNA level without ligand (log10) (cyclic di-GMP [1])	normalized RNA/DNA level with ligand (log10) (cyclic di-GMP [2])
UAAAAU	1.615 ± 0.00033	1.79 ± 0.099
CCUAUG	1.48 ± 0.038	1.7 ± 0.083
CAGCAC	1.65 ± 0.067	1.79 ± 0.025
AAUGGU	1.62 ± 0.048	1.76 ± 0.1
CCGCCG	1.738 ± 0.01	1.82 ± 0.1
GACCAG	1.82 ± 0.088	1.91 ± 0.13
AUGUUC	1.681 ± 0.01	1.84 ± 0.1
CGGGCC	1.92 ± 0.02	1.95 ± 0.067
GUUUAC	1.74 ± 0.029	1.84 ± 0.13
UCUGUC	1.75 ± 0.035	1.87 ± 0.1
ACGCCU	1.64 ± 0.099	1.8 ± 0.036
CCUUAC	1.71 ± 0.0031	1.83 ± 0.12
CCGUUU	1.53 ± 0.058	1.71 ± 0.14
CACUCC	1.74 ± 0.077	1.84 ± 0.091
GUGUCU	1.72 ± 0.031	1.84 ± 0.13
CCAAAG	1.41 ± 0.056	1.61 ± 0.1
UUUAGA	1.716 ± 0.011	1.87 ± 0.086
AGUUUU	1.79 ± 0.033	1.89 ± 0.13
UGGCAC	1.72 ± 0.043	1.86 ± 0.024
GCCGCA	1.74 ± 0.0018	1.84 ± 0.14
UGCAGG	1.747 ± 0.003	1.85 ± 0.12
CGCCGC	1.8 ± 0.068	1.91 ± 0.11
GCGGCU	1.75 ± 0.024	1.91 ± 0.14
